Test [1] deals with T1, human β-amyloid 1-40 (human, UniProt P05067 672-711).
T1 construct: domain: β-amyloid (1-40); Used in solution over captured antibody (Biacore) or coated on ELISA plates; also called human Aβ peptide (1-40); Aβ peptide (1-40)
In words: SPR Biacore T100, 25 C; antibody captured on protein A, Aβ 1-40 at 2-256 nM; mean of three experiments. How it is done:
The affinity of selected heavy and light chain combinations was determined using a Biacore T100 instrument. Three independent experiments were performed using humanised antibody immobilised via protein A surface Biacore chips and injection of β-amyloid 1-40 peptides. The chimeric molecule of 6F6 served as a reference molecule. For this Protein A was immobilised on a CM5 chip by primary amine coupling in accordance with manufactures recommendations. Anti-β-amyloid antibodies were captured on this surface and after a period of stabilisation human β-amyloid 1-40 was passed over at concentrations 256-2 nM in halving dilutions. A buffer injection over the captured antibody surface was used to double reference the data set in accordance with Biacore best practice. […] The work was carried out in HBS-EP at 25° C. Results are summarised in Table 13 as the mean of all three experiments.

In test [2] the target is T1, human β-amyloid 1-40. The test can be described thus: SPR Biacore T100 at 37 C; antibody captured on anti-human IgG, Aβ 1-40 at 1-256 nM. How it is done:
(§1) Anti-human IgG (Biacore BR-1008-39) was coupled to a CM5 biosensor chip by primary amine coupling. The anti-beta amyloid antibodies were captured on this surface. Beta amyloid (1-40) was then passed over at 256, 64, 16, 4 and 1 nM, with a 0 nM (ie buffer alone passed over the captured antibody surface) used for double referencing. […] The data was analysed using the 1:1 model inherent to the T100. The run was carried out at 25° C. and 37° C. using HBS-EP as the running buffer.
From this panel some constructs were also assessed for binding kinetics at physiological temperature.
(In general: In SPR one partner is held on a chip, and binding of the other changes the refractive index at the surface.)

Test [3] deals with T2, biotinylated β-amyloid 1-40 (human Aβ1-40 peptide in solution, competition ELISA) (human, UniProt P05067 672-711, biotin, position not stated).
T2 construct: domain: β-amyloid (1-40)
In words: competition ELISA: antibody pre-incubated with biotinylated Aβ 1-40, free Aβ captured on immobilised mouse 6F6 (competitor); Exp 1. The method, then: (§2) 6F6c and humanised antibodies H₁₁L2, H11L9, H11L10, H11L12 and H11L13 were assessed for their ability to bind Aβ1-40 peptide in solution and inhibit the interaction of human Aβ1-40 peptide with mouse 6F6 monoclonal antibody in a competition ELISA. A constant concentration of biotinylated β-amyloid 1-40 was pre-incubated with serial diluted amounts of humanised 6F6 antibody variants. The mixture including complexed and free amyloid was then added to wells containing immobilised mouse 6F6 monoclonal antibody and incubated for 15 minutes at room temperature. Plates were washed and the amount of free β-amyloid that was still available for binding the immobilised parental 6F6 monoclonal antibody was then detected using streptavidin-HRP conjugate.
(In an ELISA, binding on a coated surface is turned into a signal by an enzyme label.)

The target in test [4] is T3, N-terminally truncated β-amyloid peptide lacking residues D23 to I31 (residues 32-40) (UniProt P05067 703-711, not fully specified).
T3 construct: domain: β-amyloid residues 32-40; Stands also for the shorter peptides of the set ('and beyond'); not shown: SGSG linker lengthened to make a 22-mer
T3 peptide (looked up): Biotin-IGLMVGGVV-NH2
The test can be described thus: SRU BIND biosensor, biotinylated peptides on streptavidin plate. An excerpt:
(§3) The minimal binding epitope of the humanised monoclonal antibody H11L9 was fine mapped using SRU BIND plate reader (SRU Biosystems). Three peptide sets were generated, based on an 18 amino acid sequence for fine mapping of the epitope: a) an alanine scanning peptide set for which 10 of the residues 27-37 were replaced consecutively with an alanine residue; b) a set of N-terminally truncated peptides where one residue was removed successively from the N-terminus of the 18-mer peptide starting with residue 23 and c) a set of C-terminally truncated peptides where one residue was removed successively from the C-terminus of the 18-mer peptide starting with residue 40.
(§4) A streptavidin coated biosensor plate (SRU Biosystems) was washed with PBS and spun upside down to remove buffer and then washed with PBS, 0.1% tween 20 and 0.4% acetonitrile and spun upside down to remove residual buffer. Wells were resuspended in 100 ul of PBS, 0.1% tween 20 and 0.4% acetonitrile and read on the SRU plate reader to establish a baseline. […] The plate was then washed with PBS twice and then resuspended in 100 ul of PBS and the baseline re-measured. […] Binding of the antibodies was monitored. Plates were washed twice with PBS and resuspended in 100 ul of PBS, and the plates were re-measured and referenced back to the addition of antibody to look for weak binders that would be removed by the washing step. […]

The target of test [5] is T4, C-terminally truncated β-amyloid peptide lacking residues V40 to G33 (residues 23-32) (UniProt P05067 694-703, not fully specified).
T4 construct: domain: β-amyloid residues 23-32; Stands also for the shorter peptides of the set ('and beyond'); not shown: SGSG linker lengthened to make a 22-mer
T4 peptide (looked up): Biotin-DVGSNKGAII-NH2
The description is as above.
Description: as §3, §4

Test [6] concerns the target T2, biotinylated β-amyloid 1-40 (human …). The test can be described thus: competition ELISA: antibody pre-incubated with biotinylated Aβ 1-40, free Aβ captured on immobilised mouse 6F6 (competitor); Exp 2. The method, then: as §2
Test [7] addresses T1, human β-amyloid 1-40. In words: SPR Biacore T100; antibody captured on anti-human IgG, Aβ 1-40 at 1-256 nM; 1:1 model. How it is done:
as §1

The values that follow come from patent US20090162358A1 (GlaxoSmithKline, published 2009).

Values joined by “and” are separate entries in the source; they are usually repeats but may differ in a detail not shown here. Identical values can stand only once. * marks the point of attachment. Biotin = O=C1N[C@H]2[C@H](CS[C@H]2CCCCC(=O)*)N1

B1: humanised antibody H11L9 (antibody, human IgG1, kappa)
heavy: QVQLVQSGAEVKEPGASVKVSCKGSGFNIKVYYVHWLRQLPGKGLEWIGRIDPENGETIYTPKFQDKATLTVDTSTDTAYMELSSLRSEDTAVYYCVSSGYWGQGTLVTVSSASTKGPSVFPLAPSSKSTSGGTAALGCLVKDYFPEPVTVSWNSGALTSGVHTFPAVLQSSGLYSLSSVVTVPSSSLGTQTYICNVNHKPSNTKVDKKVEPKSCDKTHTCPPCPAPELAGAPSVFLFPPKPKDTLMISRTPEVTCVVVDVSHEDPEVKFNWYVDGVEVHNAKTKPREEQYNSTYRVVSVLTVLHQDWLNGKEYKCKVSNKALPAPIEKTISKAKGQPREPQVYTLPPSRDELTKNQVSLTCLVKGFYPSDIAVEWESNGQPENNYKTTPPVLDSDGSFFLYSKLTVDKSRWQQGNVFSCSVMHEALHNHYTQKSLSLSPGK
light: DIVMTQSPLSNPVTPGEPASISCRSSKSLLHRNGITYLYWYLQKPGQSPQLLIYQMSNLASGVPDRFSSSGSGTDFTLKISRVEAEDVGVYYCAQNLELWTFGQGTKVEIKRTVAAPSVFIFPPSDEQLKSGTASVVCLLNNFYPREAKVQWKVDNALQSGNSQESVTEQDSKDSTYSLSSTLTLSKADYEKHKVYACEVTHQGLSSPVTKSFNRGEC
notes: Human IgG1 Fc mutated heavy chain, human kappa; also called H11L9(sup); H11L9(pur)
A word on the Kd: it is the constant that tells how readily two partners part at equilibrium. One may read the IC50 as the point on the concentration scale where inhibition reaches its midpoint. A low value points to higher potency. Take B1: the Kd with human β-amyloid 1-40 [1] was 4.91 nM; with human β-amyloid 1-40 [2], 2.89 nM and 3.11 nM; in the test with human β-amyloid 1-40 [7] it was 2.47 nM and 2.46 nM. In addition, the IC50 in test [3] turned out to be 0.588 µg/mL; in test [6], 0.518 µg/mL. The binding result in test [4] and in test [5] was “no binding (tested: 30 ug/ml)” in each case.
